In article PMC13134850 one finds fold increase in binding to ATCC 23726 ∆fad-I data, which are given here for 2 molecules.

For the test, the target named is RadD adhesin of Fusobacterium nucleatum subsp. nucleatum ATCC 23726 (Fusobacterium nucleatum subsp. nucleatum ATCC 23726 (endogenous on the bacteria)). As to the kind of experiment: flow cytometry on cells. On the technique in general: A flow cytometer gives signals particle by particle.

“NKp46 fusion protein (NKp46 Ig) (human) (from UniProt O76036 22-258) (Fc fusion)” displayed a fold increase in binding to ATCC 23726 ∆fad-I of 100 fold.

B1: Ncr-1 fusion protein (Ncr-1 Ig) (mouse) (Fc fusion)
chain: QRINTEKETLPKPIIWAKPSIMVTNGNSVNIWCQGAQSASEYQLYFEGSFFALERPKPSRSMNKVRFFISQMTSHTAGIYTCFYQSGELWSKSSNPLKLVVTGLYDTPNLWVYPRPEVTLGENVTFFCQLKTATSKFFLLKERGSNHIQNKYGNIQAEFPMGPVTRAHRGTYRCFGSYNDYAWSFPSEPVTLLITGGVENSSLAPTDPTSSLDYWEFDLSTNESGLQKDSAFWDHTTQN
B1 yielded a fold increase in binding to ATCC 23726 ∆fad-I of 100 fold.
